B1: TPR t1 (parent)
chain: GACCAAUCUGCCCUCAGAGCUCGAGAACAUCUUCGGAUGCAGAGGAGGCAGGCUUCGGUGGCGCGAUAGCGCCAACGUCCUCAACCUCCAAUGCAUCCCACCACAUGAUGAUGCCUGAAGAGCCUUGGUUUUUUG

Variants of: B1
Experiment: polymerase ribozyme fitness, log enrichment relative to wild type (log ratio); higher = more active; in vitro selection for triplet polymerase activity
Procedure, shortened: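 Genotype fitness is the logarithm of its enrichment divided by wild-type enrichment, using inverse-variance-weighted averages of replicates. That logarithm is base 2. Enrichment was measured by Illumina sequencing of input and output libraries from one triplicate in vitro selection round, with frozen incubation at −7 °C, on PCR-built, transcribed mutant libraries of each subunit of a heterodimeric triplet polymerase ribozyme, retaining genotypes with ≥10 input reads and ≥1 read per output.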

Variant	polymerase ribozyme fitness (log ratio)
GACCAAUGUGCCCUCAGAGCUCGAGAACAUCUUCGGAUGCAGAGGAGGCAGGCUUCGGUAGCGCGAUAGCGCCAACGUCCUCAACCUCCAAUGCAUCCCACCAUAUGAUGAUGCCUGAAGAGCCUUGGUUUUUUG	-0.296
GACCAAUGUGCCCUCAGAGCUCAAGAACAUCUUCGGAUGCAGAGGAGGCAGGCUUCGGUGUCGCGAUAGCGCCAACGUCCUCAACCUCCAAUGCAUCCCACCACAUGAAGAAGCCUGAAGAGCCUUGGUUUUUUG	-6.91
GACCAAUGUGCCCUCAGAGCUCGAGAACAUCUUCGGAUGCAGACGAGGCAGGCUUCGGUGGCGCGAUAGAGCCAACGUCCUCACCCUCCAAUGCAUCCCACCACAUGAUGAUGCUUGAAGAGCCUUGGUUUUUUG	-5.29
GACCAAUGUGCCCUCAGAGCUCGAGAACAUCUUCCGAUGCAGAGGAGGCAGGCUUCGGUGGCGCGAUAGCGCCAACGUCCUCAACCUCCAAUGCAUCCCACCACAUGAUGAUGCCUGAAGAGCCUUGGUUUUUUG	-4.29
GACCAAUGUGCCCUCAGAGCUCGAGAACAUCUUCGGAUGCAGAGGAGUCAGGCUUCGGUGGCGCGAUAGCGCCAACGUCCUCAACCUCCAAUGCAUCCCACCACAUGAUGAUGCCUGAAGAGCCUUGGUUUUUUG	-0.882
GACCAAUGUGCCCUCAGAGCUCGAGAACAUCUUCGGAUGCAGAGGAGGCAGGCUUCGAUGGCGCGAUAGCGCCAACGUCCUCAACCUCCAAUGCAACCCACCACAUGAUGAUGCCUGAAGAGCCUUGGUUUUUUG	0.339
GACCAAUGUGCCCUCAUAGCUCGAGAACAUCUUCGGAUGCAGAGGAGGCAGGCUUCGGGGGCGCGAUAGCGCCAACGUCCUCAACCUCCAAUGCAUCCCACCACAUGAUGAUGCGUGGAGAGCCUUGGUUUUUUG	0.49
GACCAAUGUGCCCUCAGAGCUCGAGAACAUCUUCGGAUGCAGAGGAGGCAGGCUUCGGUGGCGCCAUAGCGCCAACGUCCUCAACCUCCAAUGCAUCCCACCACAUGAUGAUGUCUGAAGAGACUUGGUUUUUUG	-7.69
GACCAAUGUGCCCUCAGAGCUCGAGAACAUCUUCGGAUGCAGAGGAGGCAGACUUCGGUGGCCCGAUAGCGCCAACGUCCUCAACCUCCAAUGGAUCCCACCACAUGAUGAUCCCUGAAGAGCCUUGGUUGUUUG	-4.64
GACCAAUGUGCCCUCAGAGCUCGAGAACAUCUUCGGAUGCAGAGGAGGCAGGCUUCGGUGGCUCGAUAGCGCCAACCUCCUCAACCUCCAAUGCAUCCCACCACAUGAUGAUGCCUGAAGAGCCUUGGCUUUUUG	-2.81
GACCAAUGUGCCCUCAGAGCUCGAGAACAUCUUCGGAUGCAGAGGAGGCAGGCUUCGGUGGCUCGAUAGCGCCAACGUCCUCAACCUCCAAUGCAUCCCACCACAUGAUGAUGCCUGAAGAGCCUUGGUUUUUUG	-0.674
GACCAAUGUGCCCUCAGAGCUCGAGAACAUCUUCGGAUGCAGACGAGGAAGGCUUCGGUGGCGCGAUAGCGCCAACGUCCUCAACCUCCAAUGCAUCCCACCACAUGAUGAUGCCUGAAGAGCCUUGGUUUUUUG	0.0557
GACCAAUGUGCCCUCAGAGCUCGAGAACAUCUUCGGAUGCAGAGGAGGCAGGCUUCAGUGGCGCGAUAGCGCCAACGUCCACAACCUCCAAUGCAUCCCACCACAUGAUGAUGCCUGAAAAGCCUUGGUUUUUUG	0.685
GACCAAUGUGCCCUCAGAGCUCGAGAACAUCUUCGAAUGCAGAAGAGGCAGGCUUCGGUGGCGCGAUAGCGCCAACGUCCUCAACCUCCAAUGCAUCCCACCACAUGAUGAUGCCUGAAGAGCCUUGGUUUUUUG	-1.23
GACCAAUGUGCCCUCAGAGCUCGAGAACAUCUUCGGAUGCAAAGGAGGCAGGCUUCGGUGGCGCGAUAGCGCCAACGUCCUCAACCUCCAAUGCAUCCCACCACAUGAUGAUGCCUGAAGAGCCUUGGUUUUUUG	-0.64
GACCAAUGUGCCCUCAGAGCUCGAGAACAUCUUCGGAUGCAGAGGAGGCAGUCUUCGGUGGCGCGAUAGCGCCAACGUCCUCAACCUCCAAUGCAUCCCACCACAUGAUGAUGCCUGAAGAGCCUUGGUUUUUUG	0.359
GACCAAUGUGCCCUCAGAGCUCGAGAACAUCUUCGGAUGCAGAGGAGUCAGGCUUCGCUGGCGCGAUAGCGCCAUCGUCCUCAACCUCCAAUGCAUCCCACCACAUGACGAUUCCUGAAGAGCCUUGGUUUUUUG	-6.98
GACCAAUGUGCCCUCAGAGCUCGAGAACAUCUUCCGAUGCAGAGGAGGCAGGCUUCGGUGGCGCGAUAGCGCCAACGUCCUCAACCUCCAAUGCAUCCCACCACAUGAUGAUGCCUGAAGAGCCUUGGUUAUUUG	-5.09
GACCAAUGUGCCCUCAGAGCUCGAGAACAUCUUCGGAUGCAGAGGAGGCAGGCUUCGGUGGCGCGAUAGCGCCAACGUCCUCAACCUCCAAUGCAUCCCACCACAUGAUCAUGCCUGAAGAGCCUUGGUUUUUUG	-2.74
GACCAAUGUGCCCUCAGAGCUCGAGAACAUCUUCGGAUGCAGAGGAGGCAGGCUUCGGUGGCGCGAUAGCGCCAACGUCCUCAACCUCCAAUGCAUCCCACCACAUGAUGAUGCCUCAAGAGCCUUGGUUUUUUG	-0.943
GACCAAUGUGCCCUCAGAGCUCGAGAACAUCUUCGGAUGCAGAGGAGGCAGGCUUCGGUGGCGCGAUAGCGCCAACGUCCUCAACCUCCAAUGCAUCCCACCACAUGAUGAUGCCUUAAGAGCCUUGGUUUUUUG	-1.44
